Test results from the Human Domainome abundance scans (Beltran et al. 2025).

B1: F-BAR and double SH3 domains protein 1, residues 467 to 528; numbered along this chain, Q86WN1 (parent)
chain: RALPCPAHVVFRYQAGREDELTITEGEWLEVIEEGDADEWVKARNQHGEVGFVPERYLNFPD

Variants of: B1
Assay: abundance fitness (aPCA) (normalised: wild type 0, dead -1); higher = more abundant; growth selection in yeast, the domain comes from the species named
Details: Homo sapiens

Abundance fitness of substitutions, site by site:
A7: M -0.938; C -0.441; E -0.742; W -0.98; N -0.521; D -0.976; V -0.454; K -1.05; Y -0.528; S -0.631; T -0.917; Q -0.854; R -0.617; G -0.328; L -0.866; P -0.788
P6: H -0.038; G -0.209; S -0.344; Y -0.258; A -0.094; M -0.357; V -0.243; N -0.617; L -0.321; W -0.29; Q -0.222; K -0.219; C -0.12; D -0.432; E -0.294; T -0.219; F -0.285; R -0.077
P4: Q -0.553; L -0.567; M -0.247; K -0.359; N -0.194; I -0.381; G -0.333; H -0.472; A -0.496; R -0.505; W -0.664; C -0.346; E -0.285; Y -0.477; T -0.136; F -0.451
V10: I -0.021; W -0.236; S -0.105; T -0.167; N -0.336; M 0.005; Y -0.118; L -0.165; F -0.465; G -0.179; H -0.158; E -0.247; C -0.037; R -0.098; D -0.109; K -0.094; Q -0.733; P -1.05
Y13: G -0.463; Q -0.406; R -0.226; E -0.959; M -0.594; T -0.629; L -0.595; N -0.38; H -0.109; V -0.785; D -0.648; C -0.486; I -0.742; P -0.711; S -0.356; A -0.504; K -0.16; F -0.06
V9: R -0.788; E -0.411; C -0.32; G -0.602; Y -0.631; P -0.781; I -0.795; S -0.752; T -0.531; W -0.902; L -0.835; H -0.85; K -0.598; D -0.764; M -1.01; Q -0.607; A 0.002
L3: V -0.439; W -0.53; Y 0.124
C5: W -0.399; D -1.04; G -0.386; L -0.538; A -0.479; F -0.294; I -0.419; M -0.595; H -0.145; P -0.857; Y -0.215; Q -0.171; R -0.431
H8: L -0.202; A -0.497; W -0.041; S -0.479; D -0.282; F -0.591; V -0.349; P -0.905; K -0.257; G -0.651; T -0.213; N -0.392; Q -0.168; C -0.28; M -0.245
R12: F -0.01; T 0.023; G 0.085; A 0.056; C -0.056; P -0.102; W -0.455; L -0.265; V -0.367; H -0.188; N 0.033; E 0.17; Q -0.078; S 0.133; D -0.024; I -0.792
F11: A 0.11; T 0.069; P -0.774; K 0.017; C 0.014; E 0.109; H 0.043; Y 0.032; M 0.141; W -0.075; L -0.061; N 0.039; Q -0.103; S 0.013; I 0.12; D 0.143; G 0.095
